Test results: patent publication US20100322946A1

Tests used:
[1] = target: human VEGF165 (human) (UniProt P15692); experiment: competition ELISA, hVEGF165 in solution varied
[2] = target: human VEGF (form not stated) (human) (UniProt P15692); experiment: biotin-hVEGF with IgG, free VEGF captured on Avastin

human VEGF165 (human), sequence (P15692 other isoform, or with tags, fused parts or gaps): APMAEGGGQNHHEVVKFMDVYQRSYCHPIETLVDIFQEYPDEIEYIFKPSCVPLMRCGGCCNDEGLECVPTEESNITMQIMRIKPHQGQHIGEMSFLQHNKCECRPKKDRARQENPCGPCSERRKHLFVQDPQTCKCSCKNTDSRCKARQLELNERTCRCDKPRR

## G6 hIgG (antibody)
[1]
  IC50 (read off the curve): 3 nM
[2]
  IC50 (read off the curve): 3 nM
